This is an account of results in PMC2493294.

The target of this experiment is t-SNARE complex (syntaxin HT and SNAP-25) (rat) (UniProt P32851). Nature of the experiment: EPR spectroscopy.

As a reminder, the Kd is the concentration at which binding is half-saturated. The substance “complexin I C105A R56C, spin-labeled at position 56 (from UniProt P63041 2-134) (natural protein)” registered a Kd of 50 µM.
